Target: MDM2_(D. rerio) SWIB domain (zebra fish (Danio rerio))
Assay: stopped-flow fluorescence kinetics; 10°C, 20 mM sodium phosphate pH 7.4, 150 mM NaCl, 1 mM TCEP; Trp23 emission; MDM2 constant at 0.5–2 μM, p53TAD varied 1–10 μM for k on; k off from displacement of the 1 μM:1 μM complex by 10–20 μM dansylated human p53TAD peptide; K D = k off/k on

Row | Kd | koff | kon | Substance
1 | 1900 nM | 31 s⁻¹ | 1.59e+07 M⁻¹ s⁻¹ | p53TAD_(D. rerio)^14–27 (peptide)
2 | 340 nM | 5.2 s⁻¹ | 1.55e+07 M⁻¹ s⁻¹ | p53TAD_(D. rerio)^N26L (peptide)
3 | 120 nM | 3.7 s⁻¹ | 3.2e+07 M⁻¹ s⁻¹ | p73TAD_(D. rerio) (peptide)

Source: article PMC10303687
